Test results taken from article PMC5572738.

Biological target: T1, bacteriorhodopsin (BR) from Halobacterium salinarum (Halobacterium salinarum), P02945
T1 chain: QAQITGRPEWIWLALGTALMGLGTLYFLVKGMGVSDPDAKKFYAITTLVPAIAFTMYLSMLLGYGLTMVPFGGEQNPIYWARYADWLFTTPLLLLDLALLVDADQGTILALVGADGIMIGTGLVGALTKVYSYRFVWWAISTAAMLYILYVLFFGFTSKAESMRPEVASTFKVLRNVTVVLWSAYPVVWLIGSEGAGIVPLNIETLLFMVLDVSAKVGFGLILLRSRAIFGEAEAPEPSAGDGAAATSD
Test: SEC; Sephadex 200 column, BR solubilised in DDM; elution position compared with Blue Dextran, alcohol dehydrogenase (150 kDa) and bovine serum albumin (66 kDa)
Conditions: remark: other sources report otherwise

stoichiometry N: 3
B1: bacteriorhodopsin (BR) from Halobacterium salinarum, P02945 14-262 (natural protein)
chain: T1 chain
modifications: here or on the partner: retinal chromophore attached in a Schiff base linkage to a lysine residue in the seventh helix; retinal chromophore attached in a Schiff base linkage to a lysine residue in the seventh helix
